Measurements from patent publication US20130288389A1.

Target: human rPrP^C 23-231 (human) (UniProt P04156)
Assay: cell-based or functional assay

Substance: human sporadic CJD (sCJD) brain homogenate PrP-res (from UniProt P04156 23-230)
- eQuIC seeded conversion of substrate: lowest PrP-res amount detected: 1 fg
